The numbers were not newly measured in PMC8771847, which cites them from elsewhere.

This data set has as its target Piezo1 (Mus musculus) (UniProt E2JF22).
Chain of UniProt E2JF22 (E2JF22 whole entry): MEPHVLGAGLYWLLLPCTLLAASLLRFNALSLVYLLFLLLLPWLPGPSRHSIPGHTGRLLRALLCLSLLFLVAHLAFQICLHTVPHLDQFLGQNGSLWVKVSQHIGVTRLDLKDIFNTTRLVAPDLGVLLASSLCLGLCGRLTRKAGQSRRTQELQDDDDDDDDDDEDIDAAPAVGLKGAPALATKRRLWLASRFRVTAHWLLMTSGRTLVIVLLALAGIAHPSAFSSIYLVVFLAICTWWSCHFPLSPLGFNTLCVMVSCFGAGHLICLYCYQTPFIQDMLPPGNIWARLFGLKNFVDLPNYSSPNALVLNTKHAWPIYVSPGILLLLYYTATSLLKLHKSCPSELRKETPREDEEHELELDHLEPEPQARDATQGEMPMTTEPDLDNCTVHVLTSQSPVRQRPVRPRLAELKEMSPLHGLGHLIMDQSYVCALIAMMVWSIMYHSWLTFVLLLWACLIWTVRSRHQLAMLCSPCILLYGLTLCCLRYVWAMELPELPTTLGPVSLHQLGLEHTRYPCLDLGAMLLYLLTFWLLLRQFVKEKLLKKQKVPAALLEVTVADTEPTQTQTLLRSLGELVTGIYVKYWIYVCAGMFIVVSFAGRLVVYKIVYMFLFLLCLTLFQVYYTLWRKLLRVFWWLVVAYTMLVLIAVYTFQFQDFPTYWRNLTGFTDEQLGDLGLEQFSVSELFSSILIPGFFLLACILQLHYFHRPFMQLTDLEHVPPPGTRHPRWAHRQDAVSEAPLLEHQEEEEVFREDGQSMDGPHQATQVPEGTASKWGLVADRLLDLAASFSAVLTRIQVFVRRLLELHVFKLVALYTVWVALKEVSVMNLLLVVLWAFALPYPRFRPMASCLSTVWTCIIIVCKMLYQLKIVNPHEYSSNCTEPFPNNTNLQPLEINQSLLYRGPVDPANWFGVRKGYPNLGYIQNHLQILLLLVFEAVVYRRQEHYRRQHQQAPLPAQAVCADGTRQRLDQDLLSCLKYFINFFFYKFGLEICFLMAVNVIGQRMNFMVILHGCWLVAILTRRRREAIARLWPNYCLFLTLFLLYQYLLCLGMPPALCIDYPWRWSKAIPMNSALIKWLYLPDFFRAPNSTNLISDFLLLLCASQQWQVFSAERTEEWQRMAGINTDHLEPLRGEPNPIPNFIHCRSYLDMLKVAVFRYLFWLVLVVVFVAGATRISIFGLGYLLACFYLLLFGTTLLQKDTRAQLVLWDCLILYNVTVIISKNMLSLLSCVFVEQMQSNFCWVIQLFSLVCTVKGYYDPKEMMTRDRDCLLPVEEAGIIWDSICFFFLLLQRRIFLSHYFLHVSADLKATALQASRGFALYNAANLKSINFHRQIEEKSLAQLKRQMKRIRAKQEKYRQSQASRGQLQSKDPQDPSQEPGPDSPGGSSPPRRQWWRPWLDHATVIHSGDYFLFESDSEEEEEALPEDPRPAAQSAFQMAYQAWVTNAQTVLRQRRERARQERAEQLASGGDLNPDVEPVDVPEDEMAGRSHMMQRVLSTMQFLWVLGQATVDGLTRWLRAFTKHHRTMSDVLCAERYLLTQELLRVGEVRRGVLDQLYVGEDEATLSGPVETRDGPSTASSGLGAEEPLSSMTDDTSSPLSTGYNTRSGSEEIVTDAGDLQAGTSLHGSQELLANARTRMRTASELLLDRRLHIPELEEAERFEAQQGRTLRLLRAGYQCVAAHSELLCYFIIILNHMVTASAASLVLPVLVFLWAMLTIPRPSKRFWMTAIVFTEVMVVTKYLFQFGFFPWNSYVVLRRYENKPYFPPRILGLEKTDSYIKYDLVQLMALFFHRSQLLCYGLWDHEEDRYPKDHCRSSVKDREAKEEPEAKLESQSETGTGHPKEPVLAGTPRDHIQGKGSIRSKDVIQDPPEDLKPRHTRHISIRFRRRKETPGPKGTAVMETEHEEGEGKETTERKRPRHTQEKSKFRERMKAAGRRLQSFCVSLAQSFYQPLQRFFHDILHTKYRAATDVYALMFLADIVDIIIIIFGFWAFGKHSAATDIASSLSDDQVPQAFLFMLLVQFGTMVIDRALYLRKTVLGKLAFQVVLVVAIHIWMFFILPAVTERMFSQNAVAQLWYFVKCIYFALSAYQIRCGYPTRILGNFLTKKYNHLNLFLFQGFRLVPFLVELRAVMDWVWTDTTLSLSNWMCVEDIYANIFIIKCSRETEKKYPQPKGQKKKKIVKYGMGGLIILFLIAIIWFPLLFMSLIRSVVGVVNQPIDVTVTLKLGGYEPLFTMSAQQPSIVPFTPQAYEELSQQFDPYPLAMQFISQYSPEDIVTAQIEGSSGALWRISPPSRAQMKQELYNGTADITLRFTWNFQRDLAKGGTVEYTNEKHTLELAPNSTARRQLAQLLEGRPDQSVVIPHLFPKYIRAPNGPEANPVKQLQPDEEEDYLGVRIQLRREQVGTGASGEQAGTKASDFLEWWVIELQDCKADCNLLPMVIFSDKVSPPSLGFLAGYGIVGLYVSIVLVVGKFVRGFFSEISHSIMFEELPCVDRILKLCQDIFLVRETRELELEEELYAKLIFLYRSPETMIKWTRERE

For orientation: Kd means the constant that tells how readily two partners part at equilibrium. Turning to GsMTx-4 (from UniProt Q7YT39), the Kd was 2000 nM.
